Test results: the nanobody polyreactivity screen of Harvey et al. (2022)

Test: yeast display, Sf9 membrane polyspecificity reagent, FACS + sequencing; frameworks hold sequencing errors
Procedure, shortened: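 Synthetic nanobody libraries on Saccharomyces cerevisiae BJ5465 were galactose-induced for 36–48 hours, stained 1 hour at 4 °C with 10% biotinylated, detergent-solubilized Sf9 membrane reagent and enriched on streptavidin microbeads. FACS then separated cells into low and high (top ~1%) gates by anti-HA (expression) and streptavidin (reagent binding) fluorescence. Genes were colony-PCR amplified, MiSeq 2 × 250 sequenced and CDR-length filtered. A clone's polyreactivity label is that of its gate of origin.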

| Sequence | polyreactivity (PSR sort gate) |
| --- | --- |
| QVQLVESGGGLVQAGGSLRLSCAASGNIFANAMGWYRQAPGKERELVAAISRSGGSTYYADSVKGRFTISRDNAKNTVYLQMNSLKPEDTAVYYCAARTTRGPTFGYWGQGTQVTVSS | high polyreactivity |
| QVQLVESGGGLVQAGGSLRLSCAASGNIFATYAMGWYRQAPGKESELVAAITSSGGRTYYADSVKGRFTISRDNAKISVYLQMNSLKPEDTAVYNCNAVYSLYYTRYNYWGHGTQVTVSS | high polyreactivity |
| QVQLVESGGGLVQAGGSLRLSCAASGNIFAYYAMGWYRQAPGKERELVAAISRRGGSTYYADSVKGRFTISRDNAKNTVYLQMNSLKPEDTAVYYCNADTGNRGYDYWGQGTQVTVSS | high polyreactivity |
| QVQLVESGGGLVQAGGSLRLSCAASGNIFDIYAMGWYRQATGKERELVAAICSGGSTYYADSVKGRFTISRDNAKNTVYLQMISLKTEDTAVDYCAESRVGYYRYEYWGQGTQVTVSS | low polyreactivity |
| QVQLVESGGGLVQAGGSLRLSCAASGNIFDRNAMGWYRHAPGKQRELVAAISRSGGRTYYADSVKGRFTISRDNAKNTVYLQMISLKPEDTGVYYCATTYGGTYEYDYWGQGTQVTVSS | high polyreactivity |
| QVQLVESGGGLVQAGGSLRLSCAASGNIFDSNAMGWYRQAPGKERELVAAITWSGGSTYYADSVKGRFTISRDNAKNTVYLQMNSLKPEDTAVYYCNAVRQQRNVPGGQYEFDYWGQGTQVTVSS | high polyreactivity |
| QVQLVESGGGLVQAGGSLRLSCAASGNIFDTNAMGWYRQAPGKERELVATITQRGGTTYYADSVKGRFTISRDNAKNTVYLQINILKPEDTAVYYCNAGPVRLPYDSWGQGTQVTVSS | low polyreactivity |
| QVQLVESGGGLVQAGGSLRLSCAASGNIFFVYDMGWYRQSPGKERELVAAISWSGGSTYADSVKGRFTISRDNAKNTVYLQMNSLKPEDTAVYYCNAQGYRYRIGYDYWGQGTQVTVSS | low polyreactivity |
| QVQLVESGGGLVQAGGSLRLSCAASGNIFGFYTMGWYRQAPGKERELVAAIRSRGGSTNYADSVKGRFTISRDNAKNTVYIQMNSLKPEDTAVYYCNKDGTWLARAVTYADFDYWGQGTQVTVSS | low polyreactivity |
| QVQLVESGGGLVQAGGSLRLSCAASGNIFGIYTMGWYRQAPGKEREFFAVISLSGTSTYYADSVKGRFTISRDNAKNTVYLQMNSLKPEDTAVYYCNARTPHNKGRRRAYDYWGLGTQVTVSS | high polyreactivity |
| QVQLVESGGGLVQAGGSLRLSCAASGNIFGKYAMGWYRQAPGKERELVAAISSGGRTNYADSVKGRFTISRDNAKNTVYLQMNSLKPEDTAVYYCAKRYFRTKGYYYWGQGTQVTVSS | high polyreactivity |
| QVQLVESGGGLVQAGGSLRLSCAASGNIFGWYAMGWYRQAPGKERELVAAISSGGRTNYADSVKGRFTISRDNAKNTVYLQMNSLKPEETAVYYCAVGLHKRPPPPRFRQFNYWGQGTQVTVSS | low polyreactivity |
| QVQLVESGGGLVQAGGSLRLSCAASGNIFGYYVMGWYRPAPGKERELVAGISSGDSTDYADSVKGRFTISRDNAKNTVYLQMNSLKPEDTAVYYCNADWNPTERWFYWYTPLGYDYWGQGTQVTVSS | low polyreactivity |
| QVQLVESGGGLVQAGGSLRLSCAASGNIFHFYAIARYRQAPRKERELVATISWRGDGTYYADSVKGRFTISRDKAKNTVYFQLISLKPEETAVDYCAARGVWPEYDYWGQGTQVTVSS | low polyreactivity |
| QVQLVESGGGLVQAGGSLRLSCAASGNIFKGYAMGWYRQAPGKERELVAAISKSGGSTYYADSVKGRFTISRDNAKNTVYLQMNSLKPEDTAVYYCAARSGGSGGTYGYWGQGTQVTVSS | high polyreactivity |
| QVQLVESGGGLVQAGGSLRLSCAASGNIFKSYTMGWYRQAPGKERELVAAITSGGRTNYADSVKGRFTISRDNAKNTVYLQMNSLKPEDTAVYYCAAKHFRWGTGDYWGQGTQVTVSS | high polyreactivity |
| QVQLVESGGGLVQAGGSLRLSCAASGNIFKWYAMGWYRQAPGKERELVAAISKSGGSTYYADSVKGRFTISRDNAKNTVYLQMNSLKPEDTAVYYCAAGWKHGTYRYTVESNFDYWGQGTQVTVSS | high polyreactivity |
